In the DeepSol protein solubility set:

Test: soluble on expression in E. coli; label from the status in PepcDB or PDB records

Sequence	soluble on expression in E. coli
SAKFSKQSWGLENEALIVRCPRQGKPSYTVDWYYSQTNKSIPTQERNRVFASGQLLKFLPAAVADSGIYTCIVRSPTFNRTGYANVTIYKKQSDCNVPDYLMYSTVSGSEKNSKIYCPTIDLYNWTAPLEWFKNCQALQGSRYRAHKSFLVIDNVMTEDAGDYTCKFIHNENGANYSVTATRSFTVKDEQGFSLFPVIGAPAQNEIKEVEIGKNANLTCSACFGKGTQFLAAVLWQLNGTKITDFGEPRIQQEEGQNQSFSNGLACLDMVLRIADVKEEDLLLQYDCLALNLHGLRRHTVRLSRKNPSKECF	soluble
SANDKQYISYNNVHQLCQVSAERIKNFKPDLIIAIGGGGFIPARILRTFLKEPGVPTIRIFAIILSLYEDLNSVGSEVEEVGVKVSRTQWIDYEQCKLDLVGKNVLIVDEVDDTRTTLHYALSELEKDAAEQAKAKGIDTEKSPEMKTNFGIFVLHDKQKPKKADLPAEMLNDKNRYFAAKTVPDKWYAYPWESTDIVFHTRMAIEQGNDIFIPEQEHKQ	soluble
SAQKVEAKGGKGGNQWDDGSDHDAVTKIQVAVGGMGIQYIQFDYVKNGQTEQTPLRGIKGSTIPTDPFVINHPEEHLVSIEIWYKPDGLIQGLRFISNKKTSRFIGYDRGTRSFLQVQDKKIIGFHGSAGDNLNSLGAYFAPLTIPLTPAKPLPALGSDDGTAWDDGAYVGVKKVYVGQAQDGISAVKFVYDKSPEEVTGEEHGKSTLLGFEEFVLDYPSEYIIAVEGTYDKIFGSDGSVITMLRFKTNKQTSPPFGLEAGTAFELKEEGHKIVGFHGRADALLHKIGVHVRPVSN	soluble
SAQNVYGPGVRIGNWNEDVYLEEELMKDFLEKRDKGKLLIQRSRRLKQNLLRPMQLSVTEDGYIHYGDKVMLVNPDDPDTEADVFLRGDLSLCMTPDEIQSHLKDELEVPCGLSAVQAKTPIGRNTFIILSVHRDATGQVLRYGQDFCLGITGGFDNKMLYLSSDHRTLLKSSKRSWLQEVYLTDEVSHVNCWQAAFPDPQLRLEYEGFPVPANAKILINHCHTNRGLAAHRHLFLSTYFGKEAEVVAHTYLDSHRVEKPRNHWMLVTGNPRDASSSMLDLPKPPTEDTRAMEQAMGLDTQ	soluble
SARKSNLPVLLVPFLLCQALVRCSSPLPLVVNTWPFKNATEAAWRALASGGSALDAVESGCAMCEREQCDGSVGFGGSPDELGETTLDAMIMDGTTMDVGAVGDLRRIKNAIGVARKVLEHTTHTLLVGESATTFAQSMGFINEDLSTSASQALHSDWLARNCQPNYWRNVIPDPSKYCGPYKPPGILKQDIPIHKETEDDRGHDTIGMVVIHKTGHIAAGTSTNGIKFKIHGRVGDSPIPGAGAYADDTAGAAAATGNGDILMRFLPSYQAVEYMRRGEDPTIACQKVISRIQKHFPEFFGAVICANVTGSYGAACNKLSTFTQFSFMVYNSEKNQPTEEKVDCI	soluble
SASDFEERVVTIPLRDARAEPNHKRADKAMILIREHLAKHFSVDEDAVRLDPSINEAAWARGRANTPSKIRVRAARFEEEGEAIVEAETAE	soluble
SATSKLQALWNHPAGPKTIHFWAPTFKWGISIANIADFQKPPENISYLQQIAVTCTGMIWCRCSTIITPKNWNLFSVNVAMAATGIYQLTRKIKYDYVSEAEAAVEIEG	soluble
SAVDRDIFGISGPTYLNPVNWNCEHNRRSVAACLVQAVYVLERDRQLGRQSVEALGPPWWEFFHFELIRKLVDDADLSIFGAIFEFNPPSSKESSADNAPRFVIAFRGTITEKETISRDIALDLHLVQNGLHRTSRFTIAMQAVQNVASVFPGSNIWLAGHSLGAGMAILTGRNMVKKGVLLESYLFNPPFVAAPIERISDERVKHGFRIARSVITAGLAIAMKGKGEGSSQRSVAEDSFHILSSWTPYLFVNPGDHICSEYIGYFQHRKNMEDLGAGFIEKLATQNSIGDLFYKALGWESEPLHLLPSADLIVNVSPSPDFKYAHGISQWWQPELNLQCSKYRYSVGA	soluble
SCQSEKHPGPELQAAEKWLYFPQLALWRRLGQLSCMSRPALNLRSWLLTILHYLLPFRVLGPHSQVGWRPLSRVSLYKTVPTRLLSRACGRLNQVELPYWLWRPVYSLYIWTFGVNMTEAAVEDLHHYHNLSEFFWHQPIMARSSPLGR	not soluble
SDKVINPQVAWAQRSSTTDPERNYVLITVSIADCDAPELTIKPSYIELKAQSKPHVGDENVHHYQLHIDLYKEIIPEKTMHKVANGQHYFLKLYKKDLESEYWPRLTKEKVKYPYIKTDFDKWVDADEQDEVEA	soluble
SDSPEQESADDALKRIVDGFQHFRREVFPEQQALFKKLANSQRPRAMFITCADSRIVPELITQSSPGDLFVTRNVGNVVPPYGQMNGGVSTAIEYAVLALGVHHIIVCGHSDCGAMRAVLDPQTLERMPTVKAWLRHAEVARTVVADNCDCGASHDTLGVLTEENVVAQLDHLRTHPSVASRLASGQLFIHGWVYDIESAQIRAYDAKQGRFLPLDGEHPVPMATPAPRYLSS	not soluble
SDSSAVITQISKEEARGPLRGKGDQKSAASQKPRSRGILHSLFCCVCRDDGEALPAHSGAPLLVEENGAIPKQTPVQYLLPEAKAQDSDKICVVIDLDETLVHSSFKPVNNADFIIPVEIDGVVHQVYVLKRPHVDEFLQRMGELFECVLFTASLAKYADPVADLLDKWGAFRARLFRESCVFHRGNYVKDLSRLGRDLRRVLILDNSPASYVFHPDNAVPVASWFDNMSDTELHDLLPFFEQLSRVDDVYSVLRQPRPGS	soluble
SEAKTLGTVTPRKPVLSVSARKIKDNAADWHNLILKWETLNDAGFTTANNIANLKISLLNKDKIELDSSSPASKENEEKVCLEYNEELEKLCEELQATLDGLTKIQVKMEKLSSTTKGICELENYHYGEESKRPPLFHTWPTTHFYEVSHKLLEMYRKELLLKRTVAKELAHTGDPDLTLSYLSMWLHQPYVESDSRLHLESMLLETGHRAL	soluble
SEASFVQTTMALGLSSKKASSRNVAVERKNLITVCRFSVKTLLEKYTAEPIDDSSEEFVNFAAILEQILSHRFKACAPAGPVSWFSSDGQRGFWDYIRLACSKVPNNCVSSIENMENISTARAKGRAWIRVALMEKRMSEYITTALRDTRTTRRFYDSGAIMLRDEATILTGMLIGLSAIDFSFCLKGEVLDGKTPVVIDYTPYLKFTQSYDYLTDEEERHSAESSTSEDNSPEHPYLPLVTDEDSWYSKWHKMEQKFRIVYAQKGYLEELVRLRESQLKDLEAENRRLQLQLEEAAAQNQREKRELEGVILELQEQLTGLIPSDHAPLAQGSKELTTPLVNQWPSLGTLNGAEGASNSKLYRRHSFMSTEPLSAEASLSSDSQRLGEGTRDEEPWGPIGSSEPN	soluble
SEDDLTKVLNYTKQRQTEPNPEYYGVAKKKNIIKIHLESFQTFLINKKVNGKEVTPFLNKLSSGKEQFTYFPNFFHQTGQGKTSDSEFTMDNSLYGLPQGSAFSLKGDNTYQSLPAILDQKQGYKSDVMHGDYKTFWNRDQVYKHFGIDKFYDATYYDMSDKNVVNLGLKDKIFFKDSANYQAKMKSPFYSHLITLTNHYPFTLDEKDATIEKSNTGDATVDGYIQTARYLDEALEEYINDLKKKGLYDNSVIMIYGDHYGISENHNNAMEKLLGEKITPAKFTDLNRTGFWIKIPGKSGGINNEYAGQVDVMPTILHLAGIDTKNYLMFGTDLFSKGHNQVVPFRNGDFITKDYKYVNGKIYSNKNNELITTQPADFEKNKKQVEKDLEMSDNVLNGDLFRFYKNPDFKKVNPSKYKYETGPK	soluble
SEEDRRLWMEAMDGREPVYNSNKDNQSEGTAQLDSIGFSIIKKCIHAVETRGINEQGLYRIVGVNSRVQKLLSILMDPKTATETETEICAEWEIKTITSALKTYLRMLPGPLMMYQFQRSFIKAAKLENQESRVSEIHSLVHRLPEKNRQMLHLLMNHLAKVADNHKQNLMTVANLGVVFGPTLLRPQEETVAAIMDIKFQNIVIEILIENHEKIFNTVPETPPSNSQLLL	soluble
SEEEHPVSHKKSKKKSKKHKEKDQIKKLDIETMEEKEEDLQREETAKLSNASPNPNEGVKEGCTASMEPSSALELPDYLIKYIAIVSYEQRQNYKDDFNAEYDEYRALHARMETVARRFIKLDAQRKRLSPGSKEYQNVHEEVLQEYQKIKQSSPNYHEEKYRCEYLHNKLAHIKRLIGEFDQQQAESWH	soluble
SEELDRQKIGGFWREVGVASDQSLVLTAPKRVEGLFLTLSGSNLTVKVAYNSSGSCEIEKIVGSEIDSTGKFAFPGKCSCPVMAGGTRLCTQLGLIVPHAVPCTVPHAVPCTVLCAVPCTVPHAVP	soluble
SEITETLCIFIKTPYISEWSLNNAIINAKKYNLNLKVIKIDKIIKNVPERCYLCKKMFFEILTKEKEKYNYDVVVDGTNYDDLFEDRPGLRAKEEFNIGSPFADFKIGKKDILEIAKELNINIPPKET	not soluble
SEKVNQTFFLSHGSPTLSIDDSLEARQFFKSWTQKVLPQKPKSILVISAHWDTKFPSVNTVLRNNTIHDFSGFPDPMYKLKYEAPGAIELGKRVKELLMKEGGMKRVDEDTKRGLDHGAWVPLMLMYPEADIPICQLSVQSNQNGSYHYNMGKALASLKDEGVLIIGSGSATHNLRKLDFNITDGSPVPWALEFDHWLRDSLLQGRYGDVNEWEEKAPNAKMAHPWPEHLYPLHVVMGAAGGDAKAEQIHTSWQLGTLSYSSYSFTSSL	soluble
SENWDLSSDEMQDGNAPELDVIEEHNPVTRDDENANPEEVVGDTRSPVQNILGKFEGDINKRLHIKRKRMETYIKDSFKDSNVKLEQLWKTNKQERKKINNKFCEQYITTFQKFDMDVQKFNEEQEKSVNNYQKEQQALKLSKCSQSQTLEAIKDMHENYMEGLMNLETNNYNMLFDVDGELRKEMSVFKKDLMKHTLKYSSSFPSSD	not soluble
SERTQSSNMETRLDAMKELAKLSADVTFATEFINMDGIIVLTRLVESGTKLLSHYSEMLAFTLTAFLELMDHGIVSWDMVSITFIKQIAGYVSQPMVDVSILQRSLAILESMVLNSQSLYQKIAEEITVGQLISHLQVSNQEIQTYAIALINALFLKAPEDKRQDMANAFAQKHLRSIILNHVIRGNRPIKTEMAHQLYVLQVLTFNLLEERMMTKMDPNDQAQRDIIFELRRIAFDAESDPSNAPGSGTEKRKAMYTKDYKMLGFTNHINPAMDFTQTPPGMLALDNMLYLAKVHQDTYIRIVLENSSREDKHECPFGRSAIELTKMLCEILQVGELPNEGRNDYHPMFFTHDRAFEELFGICIQLLNKTWKEMRATAEDFNKVMQVVREQITRALPSKPNSLDQFKSKLRSLSYSEILRLRQSERMSQDDFQSPPIVELREKIQPEILELIKQQRLNRLCEGSSFRKIGNRRRQERFWYCRLALNHKVLHYGDLDDNPQGEVTFESLQEKIPVADIKAIVTGKDCPHMKEKSALKQNKEVLELAFSILYDPDETLNFIAPNKYEYCIWIDGLSALLGKDMSSELTKSDLDTLLSMEMKLRLLDLENIQIPEAPPPIPKEPSSYDFVYHYG	not soluble
SETPEVPVGSLIDFGPEAPTSSPLEAPPPVLQDGDGSLGDGASESETTESADSENDMGESPSHPSWDQDRRSSSNESFSSNQSTESTQDEETLALRDFMRGYVEKIFSGGEDLDQEEKAKFGEYCSSENGKGREWFARYVSAQRCNSKCVSEATFYRLVQSFAVVLFECHQMDDFGPAKNLMTMCFTYYHIGKPQLLPPESREKPAGSIDSYLKSANSWLAEKKDIAERLLKNTSARTENVKGFFGGLETKLKGPLARRNEEDENKPQEKRPRAVTAYSPEDEKKGEKIYLYTHLKQQPIW	soluble
SFFMGEKTFYHIKKENLILKARMFGKITSLGISGFVMQGTNCLVQIVCNKMLFMYGGDMYVGIMTVINSVREILSVPGSTLGSGAQPVLGYNYGAKQYERVRKA	not soluble
